Consider five molecules from patent publication US20150344570A1 (published 2015).

Where a chain is given by its changes, count along the chain named. Names may count otherwise. Read-outs that look alike come from different tables or passages of the source.

Assay [1] has as its target FcγRIIb (human, UniProt P31994 43-217). As to the kind of experiment: SPR (Biacore), KD. (In general: Surface plasmon resonance follows binding to a sensor surface in real time, without labels.)
In assay [2] the target is T1, FcgRIIIaV (human, UniProt P08637 17-208).
T1 construct: extracellular domain; also called FcγRIIIa V; 3aV; not shown: His tag attached to the C terminus
As to the kind of experiment: SPR (Biacore); KD of H240-Kn033/H240-Hl033/L73-k0 divided by KD of the variant. The protocol: (§1) Binding of the produced variants to FcgRIa, FcgRIIaR, FcgRIIaH, FcgRIIb, FcgRIIIaF, and FcgRIIIaV was measured according to the method of Reference Example 8.
(§2) Analysis of interaction between objective antibody and the FcγR was carried out using Biacore T100 (GE Healthcare), Biacore T200, Biacore A100, and Biacore 4000. HBS-EP+ (GE Healthcare) was used as the running buffer, and the measurement temperature was set to 25° C. Chips produced by immobilizing the antigen peptide by the amine coupling method to a Series S sensor Chip CM5 (GE Healthcare), chips produced by allowing preliminarily biotinylated antigen peptides to interact with and immobilize onto a Series S Sensor Chip SA (certified) (GE Healthcare), chips produced by immobilizing Protein L (ACTIGEN, BioVision) to Series S Sencor Chip CM5 (GE Healthcare), or chips produced by immobilizing Protein A/G (Thermo Scientific) to Series S Sencor Chip CM5 (GE Healthcare) were used. Antibodies of interest were captured onto these chips, and allowed to interact to each FcγR diluted with running buffer. To regenerate and repeatedly use the chip, the antibodies captured onto the chip were washed off by reacting 10 mM glycine-HCl, pH 1.5.

For assay [3], the target named is T2, FcgRIIaR (human, UniProt P12318 34-217).
T2 construct: extracellular domain; also called FcγRIIa R; FcgRIIa type R; not shown: His tag attached to the C terminus
T2 sequence (looked up): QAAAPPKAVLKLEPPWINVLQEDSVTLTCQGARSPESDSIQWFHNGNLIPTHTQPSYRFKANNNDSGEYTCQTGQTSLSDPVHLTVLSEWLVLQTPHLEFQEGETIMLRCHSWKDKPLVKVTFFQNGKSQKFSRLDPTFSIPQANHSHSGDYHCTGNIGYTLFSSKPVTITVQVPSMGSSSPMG
The assay is described as above. The protocol:
as §1, §2

In assay [4] the target is T3, FcgRIIIaF (human, UniProt P08637 17-208).
T3 construct: extracellular domain; also called FcγRIIIa F; 3aF; not shown: His tag attached to the C terminus
The assay is described as above. The protocol:
as §1, §2

In assay [5] the target is T4, FcgRIIaH (human, UniProt P12318 34-217).
T4 construct: extracellular domain; also called FcγRIIa H; FcgRIIa type H; not shown: His tag attached to the C terminus
T4 sequence (looked up): T2 sequence (looked up) with R134H
Described as above. The protocol:
as §1, §2

Assay [6] addresses T5, FcgRIIb (human, UniProt P31994 43-217).
T5 construct: extracellular domain; also called FcγRIIb; 2b; not shown: His tag attached to the C terminus
T5 sequence (looked up): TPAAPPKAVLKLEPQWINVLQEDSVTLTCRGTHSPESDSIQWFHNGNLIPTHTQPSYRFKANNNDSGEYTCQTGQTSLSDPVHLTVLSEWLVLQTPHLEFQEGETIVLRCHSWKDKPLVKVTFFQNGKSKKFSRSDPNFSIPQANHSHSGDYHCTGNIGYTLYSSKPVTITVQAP
Described as above. The method, then:
as §1, §2

For assay [7], the target named is T6, FcgRIIIa V (human, UniProt P08637 17-208).
T6 construct: extracellular domain; polymorphic site made after J. Clin. Invest; also called FcγRIIIa V
As to the kind of experiment: SPR (Biacore), antibody captured, FcgR as analyte. The method, then: (§3) Then, H240-Hl136 (SEQ ID NO: 97) resulting from introduction of L234Y/L235Y/G236W/H268D/S298A/A327D into H240-Hl033 and H240-Kn133 (SEQ ID NO: 98) resulting from introduction of D270E/K326D/A330K/K334E into H240-Kn033 were constructed according to the method described in Reference Example 1.
as §2, with “buffer.” for “buffer. To regenerate and repeatedly use the chip, the antibodies captured onto the chip were washed off by reacting 10 mM glycine-HCl, pH 1.5.”

In assay [8] the target is T7, FcgRIIa H (human, UniProt P12318 34-217).
T7 construct: extracellular domain; also called FcγRIIa H; FcγRIIa type H
T7 sequence (looked up): T2 sequence (looked up) with R134H
As to the kind of experiment: SPR (Biacore), antibody captured, FcgR as analyte. The protocol:
as §3
as §2, with “buffer.” for “buffer. To regenerate and repeatedly use the chip, the antibodies captured onto the chip were washed off by reacting 10 mM glycine-HCl, pH 1.5.”

Assay [9] concerns the target T8, FcgRIIIa F (human, UniProt P08637 17-208).
T8 construct: extracellular domain; polymorphic site made after J. Clin. Invest; also called FcγRIIIa F
As to the kind of experiment: SPR (Biacore), antibody captured, FcgR as analyte. The method, then:
as §3
as §2, with “buffer.” for “buffer. To regenerate and repeatedly use the chip, the antibodies captured onto the chip were washed off by reacting 10 mM glycine-HCl, pH 1.5.”

The target in assay [10] is T9, FcgRIIa R (human, UniProt P12318 34-217).
T9 construct: extracellular domain; also called FcγRIIa R; FcγRIIa type R
T9 sequence (looked up): T2 sequence (looked up)
Nature of the assay: SPR (Biacore), antibody captured, FcgR as analyte. The method, then:
as §3
as §2, with “buffer.” for “buffer. To regenerate and repeatedly use the chip, the antibodies captured onto the chip were washed off by reacting 10 mM glycine-HCl, pH 1.5.”

Assay [11] addresses T6, FcgRIIIa V. As to the kind of experiment: SPR (Biacore), antibody captured, FcgR as analyte. The method, then:
(§4) Specifically, H240-Kn120 (SEQ ID NO: 99) resulting from introduction of S239M into H240-Kn067 and H240-Kn126 (SEQ ID NO: 100) resulting from introduction of Y235Q into H240-Kn120 were prepared according to the method described in Reference Example 1. […] Those described above were assayed for the binding to each FcgR according to the method described in Reference Example 8.
as §2
The source holds these as a separate data set.

For assay [12], the target named is T7, FcgRIIa H. As to the kind of experiment: SPR (Biacore), antibody captured, FcgR as analyte. The method, then:
as §4, §2
The source holds these as a separate data set.

Assay [13] deals with T10, FcgRIIb (human, UniProt P31994 43-217).
T10 construct: extracellular domain; also called FcγRIIb; CD32B
T10 sequence (looked up): T5 sequence (looked up)
As to the kind of experiment: SPR (Biacore), antibody captured, FcgR as analyte. The method, then:
as §4, §2

The target of assay [14] is T8, FcgRIIIa F. As to the kind of experiment: SPR (Biacore), antibody captured, FcgR as analyte. The method, then: as §4, §2
This is another data set of the same source.

The target of assay [15] is T9, FcgRIIa R. As to the kind of experiment: SPR (Biacore), antibody captured, FcgR as analyte. The protocol: as §4, §2
This is another data set of the same source.

Assay [16] addresses T11, FcgRIa (human, UniProt P12314 16-292).
T11 construct: extracellular domain; also called FcγRIa; FcγRI
As to the kind of experiment: SPR (Biacore), antibody captured, FcgR as analyte. The protocol:
as §4, §2

T8 sequence (P08637 17-208): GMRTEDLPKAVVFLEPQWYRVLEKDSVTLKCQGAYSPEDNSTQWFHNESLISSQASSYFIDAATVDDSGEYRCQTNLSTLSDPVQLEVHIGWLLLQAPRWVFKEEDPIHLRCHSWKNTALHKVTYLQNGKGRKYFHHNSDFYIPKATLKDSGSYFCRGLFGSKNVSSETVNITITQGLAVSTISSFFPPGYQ
T6 sequence (P08637 17-208 F176V limits assumed): as the sequence (P08637 17-208) above, with F160V counted along it
T3 sequence (P08637 17-208): as the sequence (P08637 17-208) above
T1 sequence (P08637 17-208 F176V limits assumed): as the sequence (P08637 17-208) above, with F160V counted along it
T11 sequence (P12314 16-292): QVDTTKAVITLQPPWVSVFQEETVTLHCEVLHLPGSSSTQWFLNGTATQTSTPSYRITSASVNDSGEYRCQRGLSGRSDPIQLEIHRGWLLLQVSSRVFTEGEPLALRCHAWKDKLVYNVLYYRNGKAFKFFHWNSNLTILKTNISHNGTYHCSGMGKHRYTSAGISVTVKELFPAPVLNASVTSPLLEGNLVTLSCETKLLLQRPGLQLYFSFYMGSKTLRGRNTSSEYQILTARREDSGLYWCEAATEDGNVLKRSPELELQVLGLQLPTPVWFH

B1: H240-Kn120/H240-Hl068/L73-k0 (antibody, human IgG1, kappa)
heavy 1: QDQLVQSGAEVKKPGASVKVSCKASGFNIKDTYIQWVRQAPGQGLEWMGRIDPLRKQTKYREKFEGRVTITADTSTNTAYMELSSLRSEDTAVYYCVRSGREFDYWGQGTLVTVSSASTKGPSVFPLAPSSKSTSGGTAALGCLVKDYFPEPVTVSWNSGALTSGVHTFPAVLQSSGLYSLSSVVTVPSSSLGTQTYICNVNHKPSNTKVDKKVEPKSCDKTHTCPPCPAPEYYWGPMVFLFPPKPKDTLMISRTPEVTCVVVDVSDEDPEVKFNWYVDGVEVHNAKTKPREEQYNATYRVVSVLTVLHQDWLNGKEYKCKVSNKDLPAPIEKTISKAKGQPREPQVCTLPPSRDELTKNQVSLWCLVKGFYPSDIAVEWESNGQPENNYKTTPPVLDSDGSFFLYSKLTVDKSRWQQGNVFSCSVMHEALHNHYTQKSLSLSP
heavy 2: QDQLVQSGAEVKKPGASVKVSCKASGFNIKDTYIQWVRQAPGQGLEWMGRIDPLRKQTKYREKFEGRVTITADTSTNTAYMELSSLRSEDTAVYYCVRSGREFDYWGQGTLVTVSSASTKGPSVFPLAPSSKSTSGGTAALGCLVKDYFPEPVTVSWNSGALTSGVHTFPAVLQSSGLYSLSSVVTVPSSSLGTQTYICNVNHKPSNTKVDKKVEPKSCDKTHTCPPCPAPELLGGPSVFLFPPKPKDTLMISRTPEVTCVVVDVSHEEPEVKFNWYVDGVEVHNAKTKPREEQYNSTYRVVSVLTVLHQDWLNGKEYKCKVSNDALPKPIEETISKAKGQPREPQVYTLPPSRCELTKNQVSLSCAVKGFYPSDIAVEWESNGQPENNYKTTPPVLDSDGSFFLVSKLTVDKSRWQQGNVFSCSVMHEALHNHYTQKSLSLSP
light: DIQMTQSPSSLSASVGDRVTITCRASQDIHKYIAWYQQKPGQAPRLLIQYTSTLQPGVPSRFSGSGSGTDYTFTISSLQPEDIATYYCLQYEQLRTFGGGTKVEIKRTVAAPSVFIFPPSDEQLKSGTASVVCLLNNFYPREAKVQWKVDNALQSGNSQESVTEQDSKDSTYSLSSTLTLSKADYEKHKVYACEVTHQGLSSPVTKSFNRGEC
notes: S239M introduced into H240-Kn067
With B1, the “fold FcgRIIb-binding activity against native IgG1” value in assay [1] was approximately 50 times.

B2: H240-Kn033/H240-Hl033/L73-k0 (antibody, human IgG1, kappa)
heavy 1: not shown
heavy 2: not shown
light: B1 light
notes: Anti-epiregulin IgG1 with only knobs-into-holes alterations
Take B2: the “fold 3aV” value in [2] turned out to be 1 fold. Besides, the “fold 2aR” value in [3] turned out to be 1 fold. The “fold 3aF” value in assay [4] amounted to 1 fold. The “fold 2aH” value in assay [5] turned out to be 1 fold. The “fold 2b” value in [6] came out at 1 fold.

B3: H240-afucosyl_G1d/L73-k0 (antibody, human IgG1, kappa)
heavy: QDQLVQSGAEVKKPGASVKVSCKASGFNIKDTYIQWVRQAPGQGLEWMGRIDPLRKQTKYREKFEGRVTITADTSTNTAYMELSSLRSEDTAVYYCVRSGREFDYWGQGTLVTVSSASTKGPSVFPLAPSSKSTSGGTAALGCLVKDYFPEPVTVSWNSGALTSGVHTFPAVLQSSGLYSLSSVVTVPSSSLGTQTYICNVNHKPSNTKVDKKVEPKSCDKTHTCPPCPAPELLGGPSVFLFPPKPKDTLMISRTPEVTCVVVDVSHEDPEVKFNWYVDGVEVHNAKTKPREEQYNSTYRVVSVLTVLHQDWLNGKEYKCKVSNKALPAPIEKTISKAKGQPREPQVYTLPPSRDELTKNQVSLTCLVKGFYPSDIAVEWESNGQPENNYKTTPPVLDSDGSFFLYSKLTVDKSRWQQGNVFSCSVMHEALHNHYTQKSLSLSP
light: B1 light
modifications: afucosylated: fucose removed from the sugar chain of H240-G1d
notes: also called afucosylated antibody
As to B3, the “fold 3aV” value in assay [2] is 7 fold. Also, the “fold 2aR” value in assay [3] is 1.5 fold. Also, in assay [4], the “fold 3aF” value was 3.7 fold. Also, the “fold 2aH” value in [5] was 0.7 fold. In [6], the “fold 2b” value was 1.3 fold.

B4: H240-Kn067/H240-Hl068/L73-k0 (antibody, human IgG1, kappa)
heavy 1: B1 heavy 1 with M238S
heavy 2: B1 heavy 2
light: B1 light
notes: Heterodimerized: L234Y/L235Y/G236W/H268D/S298A/A327D in the knob chain, D270E/K326D/A330K/K334E in the hole chain
The Kd is the equilibrium constant for the complex coming apart. A low value points to tighter binding. As to B4, the Kd in assay [7] worked out at 1.6 nM; in assay [8], 94 nM; in assay [9], 7.1 nM; in [10], 49 nM; in assay [11] it was 1.6 nM; in assay [12], 94 nM. The dissociation constant Kd in [13] stood at 370 nM; in assay [14] it was 7.1 nM; in [15], 49 nM; in assay [16] it was 0.26 nM.

B5: H240-Kn126/H240-Hl068/L73-k0 (antibody, human IgG1, kappa)
heavy 1: B1 heavy 1 with Y234Q
heavy 2: B1 heavy 2
light: B1 light
notes: H240-Kn126: Y235Q introduced into H240-Kn120
Take B5: the Kd in [11] is 0.64 nM; in [12] it was 170 nM; in assay [13] it was 520 nM; in assay [14], 3.7 nM; in assay [15], 76 nM; in [16], 0.4 nM.
